Laboratory results reported in patent US20210363257A1 (Pieris, published 2021).

Experiments:
[1] = biological target: T1, human PD-L1 expressed on cells (human, UniProt Q9NZQ7 19-290); experiment: flow cytometry, RKO tumor cells (PD-L1-positive)
T1 construct: whole, on cells; also called Flp-In-CHO::huPDL-1; RKO cells
Protocol: (§1) 5×10⁴ cells per well were incubated for 1 h in ice-cold PBS containing 5% fetal calf serum (PBS-FCS). A dilution series of the fusion proteins and control antibodies were added to the cells and incubated for 1 h on ice. Cells were washed twice with PBS and then incubated with a goat anti-hIgG Alexa647-labeled antibody for 30 min on ice. Cells were subsequently washed and analyzed using iQue Flow cytometer (Intellicyte Screener). Mean geometric fluorescent signals were plotted and fitted with Graphpad software using nonlinear regression (shared bottom, SLOPE=1).
For flow cytometric analysis, RKO cells were incubated with fusion proteins and detected using a fluorescently labeled anti-human IgG antibody as described in Example 6.

[2] = biological target: T2, human CD137 expressed on cells (human, UniProt Q07011 24-255); experiment: cell-based or functional assay
[3] = biological target: T3, cynomolgus PD-L1 expressed on cells (cynomolgus); experiment: flow cytometry, Flp-In-CHO::cynoPDL-1 cells
T3 construct: whole, on cells; also called Flp-In-CHO::cynoPDL-1
Protocol: (§2) The geometric means of the fluorescence intensity were used to calculate EC₅₀ values using nonlinear regression (shared bottom, SLOPE=1).
as §1

[4] = biological target: T4, cyPD-L1-His (cynomolgus PD-L1 with a C-terminal polyhistidine tag) (cynomolgus); experiment: ELISA, cyPD-L1-His coated, detection anti-human IgG Fc-HRP
T4 construct: Bought
Protocol: Recombinant huPD-L1-His or cyPD-L1-His (human or cynomolgus PD-L1 with a C-terminal polyhistidine tag, R&D Systems or Sino Biologics) at the concentration of 1 μg/mL in PBS was coated overnight on microtiter plates at 4° C. After washing with PBS-0.05% T (PBS supplemented with 0.05% (v/v) Tween 20), the plates were blocked with 2% BSA (w/v) in PBS-0.1% T (PBS supplemented with 0.1% (v/v) Tween 20) for 1 h at room temperature. […] Bound molecules under study were detected by incubation with 1:5000 diluted anti-human IgG Fc-HRP (Jackson Laboratory) in PBS-0.1% T-2% BSA. After an additional wash step, fluorogenic HRP substrate (QuantaBlu, Thermo) was added to each well and the fluorescence intensity was detected using a fluorescence microplate reader.

[5] = biological target: T1, human PD-L1 expressed on cells; experiment: flow cytometry, Flp-In-CHO::huPDL-1 cells
Protocol: as §2, §1

[6] = biological target: T2, human CD137 expressed on cells; experiment: flow cytometry, Flp-In-CHO::huCD137 cells
Protocol: as §2, §1

[7] = biological target: T5, biotinylated huCD137-Fc (human CD137 Fc fusion) (human, UniProt Q07011 24-186, biotinylated); experiment: competitive ELISA, antibody SEQ ID NOs: 28 and 29 coated (competitor), 1 nM huCD137-Fc-bio tracer, binder titrated
T5 construct: Bought; also called huCD137-Fc-bio
Protocol: The plates were washed five times after each incubation step with 100 μL PBS-0.05% T (PBS supplemented with 0.05% (v/v) Tween 20). The plates were blocked with 2% BSA (w/v) in PBS-0.1% T (PBS supplemented with 0.1% (v/v) Tween 20) for 1 h at room temperature and subsequently washed again. […] The mixtures of testing molecules and the tracer were added to the plates and incubated for 20 min at room temperature following by five washing steps with 100 μL PBS-0.05% T. Subsequently, a 1:5000 dilution of ExtrAvidin-HRP (Sigma-Aldrich) in PBS-0.1% T-2% BSA was added to the wells and incubated for 1 h. After an additional wash step, fluorogenic HRP substrate (QuantaBlu, Thermo) was added to each well, and the fluorescence intensity was detected using a fluorescence microplate reader.
Competition data for an exemplary experiment are shown in FIG. 14, where the x-axis represents testing molecule concentration and the y-axis represents the measured trace molecule concentration. The data were fit to a 1:1 sigmoidal curve, where the IC₅₀ value and the maximum signal were free parameters, and the slope was fixed to unity.

[8] = biological target: T6, huCD137-His (human CD137 with a C-terminal polyhistidine tag) (human, UniProt Q07011 24-186); experiment: dual-binding ELISA, huCD137-His coated, binder titrated, detection with biotinylated huPD-L1-His
T6 construct: Bought; also called huCD137-His-Bio

[9] = biological target: T7, huPD-L1-Fc (recombinant human PD-L1 Fc fusion) (human, UniProt Q9NZQ7 19-239); experiment: competitive ELISA, huPD-1-His coated, 15 nM huPD-L1-Fc tracer, binder titrated
T7 construct: Bought; also called tracer huPD-L1-Fc
Protocol: Recombinant huPD-1-His (Acrobiosystems) in PBS (1 μg/mL) was coated overnight on microtiter plates at 4° C. The plates were washed five times after each incubation step with 100 μL PBS-0.05% T (PBS supplemented with 0.05% (v/v) Tween 20). The plates were blocked with 2% BSA (w/v) in PBS-0.1% T (PBS supplemented with 0.1% (v/v) Tween 20) for 1 h at room temperature and subsequently washed again. […] The mixtures of fusion proteins and the tracer were added to the plates and incubated for 20 min at room temperature following by five washing steps with 100 μL PBS-0.05% T. Subsequently, a 1:5000 dilution of goat-anti human IgG-Fc HRP (Jackson) was added to the wells and incubated for 1 h. After an additional wash step, fluorogenic HRP substrate (QuantaBlu, Thermo) was added to each well, and the fluorescence intensity was detected using a fluorescence microplate reader.

[10] = biological target: T8, cynomolgus CD137 expressed on cells (cynomolgus, UniProt A9YYE7 24-254); experiment: flow cytometry, Flp-In-CHO::cynoCD137 cells
T8 construct: also called Flp-In-CHO::cynoCD137
Protocol: as §2, §1

EC50 [1]	EC50 [nM] With RKO cells (CD137 Bioassay, NFκB-luc2/CD137 Jurkat luminescence) [2]	EC50 [3]	EC50 [4]	EC50 [5]	EC50 [6]	IC50 [7]	EC50 [8]	IC50 [9]	EC50 [10]	Binder
0.51 nM	0.0809 nM	4.48 nM	0.13 nM	3.64 nM	3.74 nM	1.1 nM	2.9 nM	2.3 nM	51.4 nM	fusion protein SEQ ID NOs: 90 and 87 (bispecific antibody, human IgG4 S228P, kappa, F234A L235A, Bivalent to CD137) heavy: not shown light: EIVLTQSPDTLSVTPKEKVTLTCRASQSIGTNIHWFQQKPGQSPKLLIKYASESISGVPSRFSGSGSGTDFTLTINSVEAEDAATYYCQQSNSWPYTFGQGTKLEIKRTVAAPSVFIFPPSDEQLKSGTASVVCLLNNFYPREAKVQWKVDNALQSGNSQESVTEQDSKDSTYSLSSTLTLSKADYEKHKVYACEVTHQGLSSPVTKSFNRGEC
0.45 nM	0.0889 nM	1.41 nM	0.18 nM	1.43 nM	6.48 nM	0.99 nM	3.3 nM	3 nM	39.1 nM	fusion protein SEQ ID NOs: 86 and 91 (bispecific antibody, human IgG4 S228P, kappa, F234A L235A, Antibody-lipocalin mutein fusion, IgG4 S228P backbone; Bivalent to CD137) heavy: not shown light: EIVLTQSPDTLSVTPKEKVTLTCRASQSIGTNIHWFQQKPGQSPKLLIKYASESISGVPSRFSGSGSGTDFTLTINSVEAEDAATYYCQQSNSWPYTFGQGTKLEIKRTVAAPSVFIFPPSDEQLKSGTASVVCLLNNFYPREAKVQWKVDNALQSGNSQESVTEQDSKDSTYSLSSTLTLSKADYEKHKVYACEVTHQGLSSPVTKSFNRGECGGGGSGGGGSGGGGSQDSTSDLIPAPPLSKVPLQQNFQDNQFHGKWYVVGQAGNIRLREDKDPIKMMATIYELKEDKSYDVTMVKFDDKKCMYDIWTFVPGSQPGEFTLGKIKSFPGHTSSLVRVVSTNYNQHAMVFFKFVFQNREEFYITLYGRTKELTSELKENFIRFSKSLGLPENHIVFPVPIDQCIDG
